In the data set the target is N,N-dimethylated casein.

B1: 3×HA-6His tag fusion transglutaminase (AO090023000250 of Aspergillus oryzae with a C-terminal 3×HA-6His tag) (protein)
chain: MAEETQVLSIQQRIAALNQAQVGQSPQAAASPLLGAQPTPFASRPAPSRQQTINNPPVNSHDSLGDRNEPTGAQPKPVPRPPPIPVQKPRAPPPLPARKASTESAPALPPRRPSGFSRKESRESLGSDVSHSTSTSAGRATIASTTSNNSDTIRSVRAPAWGAKLPPLPPKRQDTKTVQPPPRPRPSPANSSRSLSQGRPSLPPRRESTNSTSTNGNRSTSRPPPPLPSRINSDKSPGPSADTNGKQSTRKLPPPPPSSAALEKIQSSGLAGINRNTENSGKGTNGSVQEPQPNGVPPPVPRATRPDVDLAKLQATKPRLCKTTHSATAPSTMCLKCRDFSAPDAHAAQYPRESLPSYDLAWLARELTAPFPSPTDKARALFTWFHHNIEYDVHSFFNKCVKPSTPAGTLASGLAVCEGYASLFATLATHAGLEAVVVAGHGKGYGYDAPAPGSPIPPVSATGHAWSAVRIDNGQWKLLDACWGAGVVQGPGLPYKKQFNPAMFTDSNDEFGLRHFPSNRSHFFRDDGRPEITWEEYILGNPNSPLSAEQPTIFGDAQNHSIGERSFRPAAKQISIHDPSPLRFQFNLICEHWTLEHHTRAKPGLFLLMVHGLDGRQDDRLPFTHVRGSGPGGGGDFWYVDVPNAKILGAPGQKLAIAVLTSFGDRKDARGVTAEEYRQQVGRVGMAWAYIAEWQLV
For B1, the “polymerization of casein (SDS-PAGE, Coomassie blue staining)” value is reported as “in the presence of the purified or unpurified 3×HA-6His tag fusion protein, polymerization of casein was observed”.

The record behind these values is patent publication US20230235299.
